Data published in article PMC12445682 (Nucleic Acids Research, 2025).
Numbering of substitutions follows the chain as printed. Names may count otherwise.

B1: P2–OLD H332A (ATPase domain mutant), His-MBP-bdSUMO fusion (enzyme, phage P2, UniProt P13520 1-586, looked up)
chain: MTVRLASVSISNFRSCKSTSAILRPFTALVGYNNAGKSNIILAIKWLLDGSLISESDVYDPTHPVSVEGVIQGITDDTLSLLTEENQQKIAPFIIDGTLTFARRQEFNKETGKAKKSLDVYDGTTWKKNPGGIDGAISNIFPEPIHIPAMSDAVEDSTKCKNTTTIGKILSAIVSEIKQEHEEKFSKNISEIGKYLSHNGENRLESLNKIDSGVNKKVNQFFPDVSVKLHFPTPTLDEIFKSGTLKVFESREDEPVMRDISRFGHGTQRSIQMALIQYLAEIKKENSESKKSNTLIFIDEPELYLHPSAINSVRESLVTLSESGYQVIISTASASMLSAKHAANAIQVCKDSNGTIARKTISEKIEELYKSSSPQLHSAFTLSNSSYLLFSEEVLLVEGKTETNVLYALYKKINGHELNPSKICIVAVDGKGSLFKMSQIINAIGIKTRILADCDFLSNILLTEHKDLLSTECDNLLTALIESINSGELSLNTKVTTFESFKSISSKDFIKICNHEKTQKHIHEIHQKLKDNGIYIWKSGDIEAVYGFGKKQTEWDSLLDCLCDESKDVRAVIKKYDEMEDFIKWI
B2: P2–OLD H332A/E402A (ATPase and Toprim double mutant), His-MBP-bdSUMO fusion (enzyme, phage P2, UniProt P13520 1-586, looked up)
chain: B1 chain with E402A
B3: P2–OLD E402A (Toprim domain mutant), His-MBP-bdSUMO fusion (enzyme, phage P2, UniProt P13520 1-586, looked up)
chain: B1 chain with A332H, E402A

Molecular target: the molecule itself
Test: SEC

Binding result, binds:
B1
B2
B3
